In US20190233540A1 (JUNSHI BIOSCIENCES, published 2019):

Assays:
[1] = target: T1, human PCSK9 D347Y recombinant protein (human, UniProt Q8NBP7 31-692, biotin label (sites not given) in Examples 3 and 9); test: cell-based or functional assay
[2] = target: T2, human PCSK9 recombinant protein (human PCSK9 extracellular region protein) (human, UniProt Q8NBP7 31-692, biotin label (biotin-xx-NHS, sites not stated) in the ELISA and flow cytometry assays); test: ForteBio instrument (BLI)
T2 construct: extracellular domain; The tag from the vector pSec CAGA2 ECD is not described; PCSK9 is a secreted protein; also called hPCSK9; HPCSK9
T2 sequence (Q8NBP7 31-692 limits assumed): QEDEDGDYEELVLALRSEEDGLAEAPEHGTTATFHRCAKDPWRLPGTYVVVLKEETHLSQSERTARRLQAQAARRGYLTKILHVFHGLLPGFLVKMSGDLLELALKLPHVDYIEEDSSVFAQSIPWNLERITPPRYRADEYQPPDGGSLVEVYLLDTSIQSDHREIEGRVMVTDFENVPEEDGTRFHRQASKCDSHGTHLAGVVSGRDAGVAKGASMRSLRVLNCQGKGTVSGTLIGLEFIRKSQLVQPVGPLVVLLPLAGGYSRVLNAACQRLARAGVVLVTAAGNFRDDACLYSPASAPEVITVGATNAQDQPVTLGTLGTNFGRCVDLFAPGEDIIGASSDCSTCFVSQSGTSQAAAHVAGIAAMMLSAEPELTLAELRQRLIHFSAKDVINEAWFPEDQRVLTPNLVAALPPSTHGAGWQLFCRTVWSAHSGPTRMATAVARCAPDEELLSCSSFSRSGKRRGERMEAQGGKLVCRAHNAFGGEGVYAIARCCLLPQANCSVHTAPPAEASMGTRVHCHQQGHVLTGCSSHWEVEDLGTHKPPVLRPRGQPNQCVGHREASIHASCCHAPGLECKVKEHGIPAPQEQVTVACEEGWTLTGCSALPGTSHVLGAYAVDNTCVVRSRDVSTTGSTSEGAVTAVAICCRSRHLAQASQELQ

[3] = target: T1, human PCSK9 D347Y recombinant protein; test: ELISA, biotin-labeled PCSK9 (D347Y by the legend) at 2 ug/ml captured on streptavidin, antibody titrated; unit taken from the axis log(ng/ml)
[4] = target: T1, human PCSK9 D347Y recombinant protein; test: ELISA, antibody coated at 1 ug/ml, biotin-labeled PCSK9 (D347Y by the legend) titrated, HRP-streptavidin; the concentration is that of PCSK9; unit taken from the axis log(pg/ml)
[5] = target: T1, human PCSK9 D347Y recombinant protein; test: competition ELISA, biotin-labeled PCSK9 (D347Y by the legend) captured on streptavidin, antibody titrated in 200 ng/ml reference antibody, bound reference antibody detected with anti-human IgG-Fc; competitor: reference antibody; unit taken from the axis log(ng/ml)
murine-derived PCSK9 = murine-derived PCSK9 (murine, UniProt Q80W65 35-694, limits assumed); test: ELISA, species cross-reactivity
Chain of murine-derived PCSK9 (Q80W65 35-694 limits assumed): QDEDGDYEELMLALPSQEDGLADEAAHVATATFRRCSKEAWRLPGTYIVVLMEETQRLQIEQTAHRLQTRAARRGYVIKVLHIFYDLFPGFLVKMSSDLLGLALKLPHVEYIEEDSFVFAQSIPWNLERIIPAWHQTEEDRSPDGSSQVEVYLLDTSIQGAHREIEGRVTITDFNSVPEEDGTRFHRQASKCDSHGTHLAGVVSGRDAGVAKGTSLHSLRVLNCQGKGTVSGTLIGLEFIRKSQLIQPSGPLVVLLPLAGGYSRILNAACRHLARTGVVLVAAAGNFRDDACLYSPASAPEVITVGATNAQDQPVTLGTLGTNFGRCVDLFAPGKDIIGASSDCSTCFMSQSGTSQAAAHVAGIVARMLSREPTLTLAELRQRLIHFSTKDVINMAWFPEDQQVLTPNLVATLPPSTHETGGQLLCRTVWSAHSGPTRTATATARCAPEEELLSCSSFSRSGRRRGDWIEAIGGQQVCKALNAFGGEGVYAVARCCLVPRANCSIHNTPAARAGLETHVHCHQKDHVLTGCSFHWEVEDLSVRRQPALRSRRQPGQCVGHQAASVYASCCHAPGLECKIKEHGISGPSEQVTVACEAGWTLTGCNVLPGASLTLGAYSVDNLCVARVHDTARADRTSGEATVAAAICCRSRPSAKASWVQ

[6] = target: T1, human PCSK9 D347Y recombinant protein; test: competition ELISA, biotin-labeled PCSK9 (D347Y by the legend) captured on streptavidin, antibody titrated in 200 ng/ml reference antibody, bound reference antibody detected with anti-human IgG-Fc; competitor: reference antibody; unit taken from the axis log(ng/ml); the curve is nearly flat (OD450 about 1.2 to 1.1), ambiguous fit
[7] = target: T1, human PCSK9 D347Y recombinant protein; test: cell-based or functional assay; remark: listed apart in the source
[8] = target: T2, human PCSK9 recombinant protein (human …); test: ELISA, biotin-labeled PCSK9 at 2 ug/ml captured on streptavidin, antibody titrated; unit taken from the axis log(pg/ml)
[9] = target: T2, human PCSK9 recombinant protein (human …); test: ELISA, biotin-labeled PCSK9 at 0.2 ug/ml captured on streptavidin, antibody titrated; unit taken from the axis LOG (pg/mL)

T1 sequence (Q8NBP7 31-692 D374Y): as the sequence (Q8NBP7 31-692 limits assumed) above, with D344Y counted along it

IC50, LDL uptake of HepG2 cells [1]	Kd [2]	EC50 [3]	EC50 [4]	IC50 [5]	binding result (murine-derived PCSK9)	IC50 [6]	IC50(nM), LDL uptake of HepG2 cells (FL-LDL fluorescence) [7]	EC50 [8]	IC50, LDL uptake of HepG2 cells (Dil-LDL fluorescence) [1]	EC50 [9]	Binder
~1 µg/mL	0.49 nM	0.023 µg/mL	0.0389 µg/mL	–	–	–	–	–	–	–	2B12 murine-derived anti-PCSK9 monoclonal antibody (antibody, V domains shown, Mouse hybridoma antibody) VH: DVQLQESGPGLVKPSQSLSLTCSVTGFSITSDYAWNWIRQFPGNKLEWMGYISYSGTTNYNPSLKSRISITRDTSKNQFFLHLNSVITEDTATYYCARREGHYSWFPYWGQGTLVTVSA VL: DIVLTQSPASLAVSLGQRATISCRASESVEYYGTSLMHWYQHKPGQTPKLLIYSGSNVESGVPARFSGSGSGTDFSLNIHPVEEDDIAMYFCQQSREVPSTFGGGTKLEIK
~1 µg/mL	0.9 nM	0.318 µg/mL	0.666 µg/mL	0.675 µg/mL	–	–	–	–	–	–	1B5 murine-derived anti-PCSK9 monoclonal antibody (antibody, V domains shown, Mouse hybridoma antibody) VH: DVQLQESGPGLVKPSQSLSLTCTVTGYSITSDYAWNWIRQFPGNKVEWMGYISYSGSSSYNPSLKGRISITRDTSKNQFFLQLNSVTTEDTATYYCARFYYRFDAYFDSWGQGTTLTVSS VL: not shown
~1 µg/mL	4.7 nM	–	0.143 µg/mL	–	no binding	~0.227 µg/mL	–	–	–	–	1B11 murine-derived anti-PCSK9 monoclonal antibody (antibody, V domains shown, Mouse hybridoma antibody) VH: QVQLQQSGAVLVRPGTSIKVSCKASGYAFTNYLIEWIKKRPGQGLEWIGMINPGSGDTNFNEKFKAKATLTADKSSTTAYMQLNSLTFDDSAVYFCARSSQLGLPYWGQGTLVTVSA VL: DIQMTQSPASLSASVGETVTITCRASENIYSYLAWYQQKQENSPQLLVYNAYTLADGVPSRFSGSGSGTQFSLKIISLQPEDFGNYYCQHHYRTPPTFGGGTKLEIK
~1 µg/mL	0.28 nM	0.223 µg/mL	0.0835 µg/mL	0.0766 µg/mL	–	–	5.5 nM	0.078 µg/mL	–	–	3G12 murine-derived anti-PCSK9 monoclonal antibody (antibody, V domains shown, Mouse hybridoma antibody) VH: QVQLKQSGPSLLQPSQSLSITCTVSGFSLTSYGIHWVRQSPGKGLEWLGVIWRGGITDYNAPFMSRLNITKDNSKNQVFFKMNSLQVDDTAIYYCANHRDWGQGTLVTVSA VL: DIQMTQSPSSLSASLGGKVTITCKASQDINKYIDWYQHKPGKSPRLLIHYASTLQPGIPSRFSGSGSGRDYSFSISNLEPEDIATYYCLQYDDLWTFGGGTKLEIK
–	–	–	–	–	–	–	–	0.0338 µg/mL	–	–	3G12 chimeric antibody (antibody, V domains shown) VH: QVQLKQSGPSLLQPSQSLSITCTVSGFSLTSYGIHWVRQSPGKGLEWLGVIWRGGITDYNAPFMSRLNITKDNSKNQVFFKMNSLQVDDTAIYYCANHRDWGQGTLVTVSA VL: DIQMTQSPSSLSASLGGKVTITCKASQDINKYIDWYQHKPGKSPRLLIHYASTLQPGIPSRFSGSGSGRDYSFSISNLEPEDIATYYCLQYDDLWTFGGGTKLEIK
~1 µg/mL	0.91 nM	0.251 µg/mL	0.752 µg/mL	0.808 µg/mL	–	–	–	–	–	–	1A5 murine-derived anti-PCSK9 monoclonal antibody (antibody, V domains shown, Mouse hybridoma antibody) VH: QVQLKQSGPSLVQPSQSLSITCTVSGFSLTSYGVHWVRQSPGKGLEWLGVIWRGGSTDYNAAFMSRLSITKDNSKSQVFFKMNSLQADDTAIYYCANHRDWGQGTLVTVSA VL: DIQMTQSPSSLSASLGDKVTITCKASQDINKYIDWYQHKPGKGPRLLIHYTSTLQPGIPSRFSGSGSGRDYSFSISNLEPEDIATYYCVQYDDLWTFGGGTKLEIK
–	–	–	–	–	–	–	–	–	~1 µg/mL	0.00516 µg/mL	humanized anti-PCSK9 antibody clone 32 (antibody, V domains shown, also called humanized antibody) VH: QVQLQESGPGLVKPSQTLSLTCTVSGFSISSYGIHWIRQSPGKGLEWIGVIWRGGITDYNAPFMSRVTISKDNSKNQVSFKLSSVTAADTAVYYCANHRDWGQGTLVTVSS VL: DIQMTQSPSSLSASVGDRVTITCQASQDINKYIDWYQHKPGKAPKLLIHYASTLQPGVPSRFSGSGSGRDYTFTISSLQPEDIATYYCLQYDDLWTFGQGTKVEIK
–	–	–	–	–	–	–	–	–	~1 µg/mL	0.00481 µg/mL	humanized anti-PCSK9 antibody clone 77 (antibody, V domains shown, It shares its light chain with clone 32; also called humanized antibody) VH: QVQLQESGPGLVKPSQTLSLTCTVSGFSISSYGVHWIRQSPGKGLEWIGVIWRGGSTDYNAAFMSRVTISKDNSKNQVSFKLSSVTAADTAVYYCANHRDWGQGTLVTVSS VL: DIQMTQSPSSLSASVGDRVTITCQASQDINKYIDWYQHKPGKAPKLLIHYASTLQPGVPSRFSGSGSGRDYTFTISSLQPEDIATYYCLQYDDLWTFGQGTKVEIK
